Experimental data taken from publication PMC3100292 (PLoS ONE, 2011).

How the values were obtained:
[1] = biological target: PDlim2 fused with the GAL4 DNA-binding domain (pBind-PDlim2) (human) (UniProt Q96JY6); experiment: two-hybrid
YC-PDlim2 (human) = YC-PDlim2 (human) (UniProt Q96JY6); experiment: split reporter (BiFC, NanoBiT)
[2] = biological target: T1, PDlim2 PDZ domain (residues 1-83) (human, UniProt Q96JY6 1-83); experiment: crystal structure; conditions: both partners purified
T1 construct: also called PDZ region (1-83) of PDlim2
T1 sequence (looked up): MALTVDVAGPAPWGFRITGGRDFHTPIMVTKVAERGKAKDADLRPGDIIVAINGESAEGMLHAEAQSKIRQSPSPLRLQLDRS

In the case of “HN12-NS1 fused with the VP16 transcription activation domain (pACT-NS1) (natural protein)”, the relative luciferase activity (firefly/Renilla) [1] is reported as 160 RLU.

Work on YN-HN12-NS1 wt (natural protein) yielded a mean fluorescence intensity (MFI) (YC-PDlim2 (human)) of 1120 and a percent of cells in the high fluorescence zone (YC-PDlim2 (human)) of 10.9%.

B1: C-terminal hexapeptide of HN12-NS1 (TIESEV) (peptide)
peptide: TIESEV
B1: binds [2].
